Experimental findings from patent US20230322958A1 (Genentech, published 2023) are described below.

The chains are these.
T1: huNotch2-EGF6-10 (human, UniProt Q04721 219-418)
T1 construct: also called human Notch2 EGF6-10
T1 sequence: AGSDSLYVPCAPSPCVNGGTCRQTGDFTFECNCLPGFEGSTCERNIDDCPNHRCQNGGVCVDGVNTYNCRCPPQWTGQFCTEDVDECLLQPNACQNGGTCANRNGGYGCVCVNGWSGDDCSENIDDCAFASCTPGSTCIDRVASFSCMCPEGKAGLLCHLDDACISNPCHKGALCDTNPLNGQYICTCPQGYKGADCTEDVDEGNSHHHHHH

B1: 1B2.v104.huFab.LC_K149C.dPEG6_dimer (other)
heavy: EVQLVESGGGLVQPGGSLKLSCAVSGFTFSDFYMEWVRQASGKGLEWVAAQRNKANDFSIVYSASVKDRFTISRDDSKSTLYLQMNSLKTEDTAVYYCSRDGGKLALDAWGQGTLVTVSSASTKGPSVFPLAPSSKSTSGGTAALGCLVKDYFPEPVTVSWNSGALTSGVHTFPAVLQSSGLYSLSSVVTVPSSSLGTQTYICNVNHKPSNTKVDKKVEPKSCD
light: DIQMTQSPSSVSASVGDRVTITCQTSEDIYSGLAWYQQKPGKSPKLLIYGASRLQDGVPSRFSGSGSGTDYTLTISSLQPEDFATYYCQQGFKYPLTFGGGTKVEIKRTVAAPSVFIFPPSDEQLKSGTASVVCLLNNFYPREAKVQWCVDNALQSGNSQESVTEQDSKDSTYSLSSTLTLSKADYEKHKVYACEVTHQGLSSPVTKSFNRGEC
modifications: engineered Cys (K149C) joined through maleimide to Bis-Mal-PEG6
B2: 1B2.v104.huFab.LC_K149C.dPEG11_dimer (other)
heavy: B1 heavy
light: B1 light
modifications: engineered Cys (K149C) joined through maleimide to Bis-Mal-PEG11
B3: 1B2.v104.huFab.LC_K149C (Fab, V domains shown)
VH: EVQLVESGGGLVQPGGSLKLSCAVSGFTFSDFYMEWVRQASGKGLEWVAAQRNKANDFSIVYSASVKDRFTISRDDSKSTLYLQMNSLKTEDTAVYYCSRDGGKLALDAWGQGTLVTVSS
VL: DIQMTQSPSSVSASVGDRVTITCQTSEDIYSGLAWYQQKPGKSPKLLIYGASRLQDGVPSRFSGSGSGTDYTLTISSLQPEDFATYYCQQGFKYPLTFGGGTKVEIKR
B4: hu.3107.L1H14 (antibody, V domains shown)
VH: EVQLVQSGAEVKKPGESLKISCKGSGYTFSNYVIHWVRQMPGKGPEWTGYIIPGSGGTKFNEKFKGQATISVDKSSTTAYLQWSSLKASDTAMYYCARDGAGSFTYWGQGTLVTVSS
VL: DVVMTQSPLSLPVTLGQPASISCRSSQSLVHSDGNTYLHWFQQRPGQSPRLLIYRISNRFSGVPDRFSGSGSGTDFTLKISRVEAEDVGVYYCLQSTHFPDTFGGGTKVEIK
notes: also called hu.Notch-3107.L1H14
B5: hu.3107.L6H14 (antibody, V domains shown)
VH: B4 VH
VL: DVVMTQSPDSLAVSLGERATINCRSSQSLVHSDGNTYLHWFQQKPGQPPKLLIYRISNRFSGVPDRFSGSGSGTDFTLTISSLQAEDVAVYYCLQSTHFPDTFGGGTKVEIK
notes: also called hu.Notch-3107.L6H14
B6: hu.3107.L1H12 (antibody, V domains shown)
VH: EVQLVQSGAEVKKPGASVKVSCKASGYTFSNYVIHWVRQAPGQGPEWTGYIIPGSGGTKFNEKFKGRATSTVDTSSTTAYMELSRLRSDDTVVYYCARDGAGSFTYWGQGTLVTVSS
VL: B4 VL
notes: also called hu.Notch-3107.L1H12
B7: hu.3107.L7H15 (antibody, V domains shown)
VH: B4 VH with S76I
VL: B5 VL with V2I, F41Y
notes: also called hu.Notch-3107.L7H15
B8: hu.3107.L7H14 (antibody, V domains shown)
VH: B4 VH
VL: B5 VL with V2I, F41Y
notes: also called hu.Notch-3107.L7H14
B9: hu.3107.L1H13 (antibody, V domains shown)
VH: B6 VH with S76I
VL: B4 VL
notes: also called hu.Notch-3107.L1H13
B10: hu.3107.L1H15 (antibody, V domains shown)
VH: B4 VH with S76I
VL: B4 VL
notes: also called hu.Notch-3107.L1H15
B11: hu.3107.L6H15 (antibody, V domains shown)
VH: B4 VH with S76I
VL: B5 VL
notes: also called hu.Notch-3107.L6H15
B12: hu.3107.L6H12 (antibody, V domains shown)
VH: B6 VH
VL: B5 VL
notes: also called hu.Notch-3107.L6H12
B13: hu.3107.L7H12 (antibody, V domains shown)
VH: B6 VH
VL: B5 VL with V2I, F41Y
notes: also called hu.Notch-3107.L7H12
B14: hu.3107.L7H13 (antibody, V domains shown)
VH: B6 VH with S76I
VL: B5 VL with V2I, F41Y
notes: also called hu.Notch-3107.L7H13
B15: hu.3107.L6H13 (antibody, V domains shown)
VH: B6 VH with S76I
VL: B5 VL
notes: also called hu.Notch-3107.L6H13
B16: hu1B2.L7H10 (antibody, V domains shown)
VH: B3 VH with Q51S, L81A, G102S, K104R, L105W, A106G
VL: DIQMTQSPSSVSASVGDRVTITCQTSEDIYSGLAWYQQKPGKSPKLLIYGASRLQDGVPSRFSGSGSGTDYTLTISSLQPEDFATYYCQQGFKYPLTFGGGTKVEIK
notes: Human IgG1 backbone
B17: hu1B2.L7H14 (antibody, V domains shown)
VH: B3 VH with Q51S, G102S, K104R, L105W, A106G
VL: B16 VL
notes: Human IgG1 backbone; also called hu.1B2.DFS.H14L7

Where a chain is given by its changes, count along the chain named. Names may count otherwise.

The term Kd denotes the free concentration of one partner at which half of the binding sites on the other are occupied at equilibrium, for simple one-to-one binding. Read a high Kd as a looser complex. Broadly, the koff is the first-order rate constant of dissociation. Read a high koff as fast dissociation. As usually defined, the kon is the rate constant with which the complex forms. Higher therefore signals fast association.

For one assay, the target named is T2, human Notch2 on U-87 MG cells (human, UniProt Q04721 26-2471). Put plainly: cell-based or functional assay.
T2 sequence (Q04721 26-2471): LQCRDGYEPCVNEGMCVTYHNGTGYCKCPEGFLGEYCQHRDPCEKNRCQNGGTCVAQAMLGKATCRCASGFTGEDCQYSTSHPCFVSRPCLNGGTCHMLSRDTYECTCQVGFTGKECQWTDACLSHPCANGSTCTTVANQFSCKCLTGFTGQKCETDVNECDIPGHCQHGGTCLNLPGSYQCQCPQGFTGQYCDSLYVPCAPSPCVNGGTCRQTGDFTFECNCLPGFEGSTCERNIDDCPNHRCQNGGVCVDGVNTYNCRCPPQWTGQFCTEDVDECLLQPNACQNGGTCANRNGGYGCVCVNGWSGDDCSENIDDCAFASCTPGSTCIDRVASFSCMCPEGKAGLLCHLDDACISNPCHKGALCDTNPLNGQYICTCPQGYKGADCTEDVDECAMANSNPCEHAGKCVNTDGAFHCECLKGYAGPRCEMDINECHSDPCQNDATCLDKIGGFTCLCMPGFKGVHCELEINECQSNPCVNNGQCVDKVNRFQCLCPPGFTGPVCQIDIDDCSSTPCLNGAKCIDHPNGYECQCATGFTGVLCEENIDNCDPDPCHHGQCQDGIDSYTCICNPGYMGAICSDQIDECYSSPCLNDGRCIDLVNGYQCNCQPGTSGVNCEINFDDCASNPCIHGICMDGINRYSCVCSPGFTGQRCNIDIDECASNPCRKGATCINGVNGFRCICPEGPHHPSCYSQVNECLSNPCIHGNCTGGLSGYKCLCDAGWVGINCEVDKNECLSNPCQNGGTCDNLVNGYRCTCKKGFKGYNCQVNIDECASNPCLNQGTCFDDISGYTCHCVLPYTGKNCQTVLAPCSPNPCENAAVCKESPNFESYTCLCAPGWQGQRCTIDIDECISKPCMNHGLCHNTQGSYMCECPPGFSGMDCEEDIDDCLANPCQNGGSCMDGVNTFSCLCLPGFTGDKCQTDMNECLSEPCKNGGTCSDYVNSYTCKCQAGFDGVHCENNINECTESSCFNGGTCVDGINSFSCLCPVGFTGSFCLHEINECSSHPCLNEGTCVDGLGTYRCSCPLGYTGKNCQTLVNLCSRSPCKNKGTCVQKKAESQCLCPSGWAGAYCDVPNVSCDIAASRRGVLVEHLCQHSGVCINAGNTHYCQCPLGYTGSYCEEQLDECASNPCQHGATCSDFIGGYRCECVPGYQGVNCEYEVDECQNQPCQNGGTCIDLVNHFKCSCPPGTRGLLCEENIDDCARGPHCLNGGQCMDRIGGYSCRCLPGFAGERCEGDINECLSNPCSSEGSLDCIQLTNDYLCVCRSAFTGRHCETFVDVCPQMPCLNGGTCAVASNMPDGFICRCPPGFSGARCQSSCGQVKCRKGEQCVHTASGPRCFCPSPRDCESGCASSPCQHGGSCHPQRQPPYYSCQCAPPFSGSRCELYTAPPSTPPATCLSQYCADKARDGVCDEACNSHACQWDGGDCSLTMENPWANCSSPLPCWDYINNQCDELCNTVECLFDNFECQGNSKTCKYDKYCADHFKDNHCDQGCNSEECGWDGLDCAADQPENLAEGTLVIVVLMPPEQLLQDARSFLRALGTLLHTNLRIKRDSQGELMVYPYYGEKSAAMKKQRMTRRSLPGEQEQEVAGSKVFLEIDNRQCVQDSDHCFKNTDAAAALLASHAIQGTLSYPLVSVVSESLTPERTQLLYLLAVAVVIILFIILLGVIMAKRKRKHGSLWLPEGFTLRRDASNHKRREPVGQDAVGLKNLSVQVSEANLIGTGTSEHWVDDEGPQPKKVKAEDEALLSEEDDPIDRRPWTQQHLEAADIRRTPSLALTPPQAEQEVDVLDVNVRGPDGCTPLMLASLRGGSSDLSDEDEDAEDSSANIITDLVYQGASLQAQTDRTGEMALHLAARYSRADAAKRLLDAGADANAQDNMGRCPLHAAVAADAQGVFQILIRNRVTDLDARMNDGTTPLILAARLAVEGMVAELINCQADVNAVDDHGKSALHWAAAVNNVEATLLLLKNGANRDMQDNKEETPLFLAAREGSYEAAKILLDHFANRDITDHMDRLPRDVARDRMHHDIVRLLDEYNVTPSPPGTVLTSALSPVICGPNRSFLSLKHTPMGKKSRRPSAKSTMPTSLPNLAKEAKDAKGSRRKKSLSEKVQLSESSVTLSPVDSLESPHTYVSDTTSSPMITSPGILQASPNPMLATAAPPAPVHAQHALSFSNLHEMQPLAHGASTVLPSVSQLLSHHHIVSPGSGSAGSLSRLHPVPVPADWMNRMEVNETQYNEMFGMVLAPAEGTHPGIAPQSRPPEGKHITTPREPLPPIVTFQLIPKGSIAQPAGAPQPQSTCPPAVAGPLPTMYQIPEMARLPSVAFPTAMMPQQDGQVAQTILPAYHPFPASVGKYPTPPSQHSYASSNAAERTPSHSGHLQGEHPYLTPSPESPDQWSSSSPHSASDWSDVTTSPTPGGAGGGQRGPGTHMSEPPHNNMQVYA
For B1, the “DLL Inhibition (IC50)” value was greater than 1000 nM.
For the molecule B2, the “DLL Inhibition (IC50)” value was greater than 1000 nM.
Regarding B3, the “DLL Inhibition (IC50)” value was determined as 50 nM and the “Jag1 Inhibition (IC50)” value was 120 nM.

In a further assay the target is T2, human Notch2 on U-87 MG cells. The assay can be described thus: cell-based or functional assay. This is another data set of the same source.
Consider B4, for which the “Jagged1 IC50” value was found to be 6.95 nM.
B5: the “Jagged1 IC50” value worked out at 6.65 nM.
With B6, the “Jagged1 IC50” value was determined as 7.85 nM.
In the case of B7, the “Jagged1 IC50” value is 9.16 nM.
Consider B8, for which the “Jagged1 IC50” value turned out to be 10.5 nM.
B9: the “Jagged1 IC50” value was 4.92 nM.
For B10, the “Jagged1 IC50” value came out at 6.08 nM.
On the same count and under the same terms, in the case of B11 it was 8.03 nM; in that of B12, 4.71 nM.
Take B13: the “Jagged1 IC50” value came out at 11 nM.
Take B14: the “Jagged1 IC50” value was 5.94 nM.
Regarding B15, the “Jagged1 IC50” value is 6.42 nM.

A further assay deals with T1, huNotch2-EGF6-10. Put plainly: SPR BIAcore, separate experiment, substantially as for Table 4. As for the experimental part:
(§1) The binding affinities of the antibodies was determined by BIAcore™ T200 machine. Rabbit antibodies were expressed as chimeric antibodies with rabbit variable domains and human constant domains. Rat antibodies were expressed as chimeric antibodies with rat variable domains and human constant regions. Humanized antibodies were expressed in the human IgG1 backbone. For kinetics measurements, antibodies were captured on research grade protein A chip (GE Healthcare) to achieve approximately 300 RU. Ten-fold serial dilutions of huNotch2-EGF6-10 were injected in HBS-P buffer with additional 3 mM CaCl₂ at 37° C. with a flow rate of 100 μL/min. Association rates (ka) and dissociation rates (kd) were calculated using a 1:1 Langmuir binding model (BIAcore™ T200 Evaluation Software version 2.0). The equilibrium dissociation constant (KD) was calculated as the ratio kd/ka.
In a separate experiment, the binding affinities of the humanized versions of the rat 3107 antibody were determined, substantially as described above.
A general note: SPR reads the build-up and loss of mass on a sensor chip optically.
On to B4, for which binding was put at a Kd of 17.5 nM, the koff was 0.00631 s⁻¹ and the kon amounted to 360000 M⁻¹ s⁻¹.
B5 returned a Kd of 10 nM, a koff of 0.00354 s⁻¹ and a kon of 354000 M⁻¹ s⁻¹.
Taken in the same sequence, the figures for B6 were 14.3 nM, 0.00542 s⁻¹ and 380000 M⁻¹ s⁻¹.
B7: binding was characterised by a dissociation constant (Kd) of 11.6 nM, the koff amounted to 0.00407 s⁻¹ and the kon came to 350000 M⁻¹ s⁻¹.
Taken in the same sequence, the figures for B8 were 10.4 nM, 0.00359 s⁻¹ and 346000 M⁻¹ s⁻¹.
Turning to B9, the Kd is 15.5 nM, the koff was determined as 0.00587 s⁻¹ and the kon was 379000 M⁻¹ s⁻¹.
Taken in the same sequence, the figures for B10 were 17.9 nM, 0.00634 s⁻¹ and 355000 M⁻¹ s⁻¹.
B11 registered a Kd of 9.23 nM, a koff of 0.00365 s⁻¹ and a kon of 396000 M⁻¹ s⁻¹.
For B12 the same measures were 9.79 nM, 0.00404 s⁻¹ and 413000 M⁻¹ s⁻¹.
The molecule B13 returned a Kd of 9.54 nM, a koff of 0.00367 s⁻¹ and a kon of 384000 M⁻¹ s⁻¹.
Taken in the same sequence, the figures for B14 were 9.94 nM, 0.00353 s⁻¹ and 355000 M⁻¹ s⁻¹.
B15 yielded a Kd of 9.47 nM, a koff of 0.00424 s⁻¹ and a kon of 448000 M⁻¹ s⁻¹.

The next assay has as its target T1, huNotch2-EGF6-10. The assay can be described thus: SPR BIAcore T200, antibody captured on protein A, 37 C. As to the method: as §1
Molecule B16 displayed a Kd of 9.94 nM, a dissociation rate constant (koff) of 0.00415 s⁻¹ and a kon of 418000 M⁻¹ s⁻¹.
B17 yielded a Kd of 6.13 nM, a koff of 0.00134 s⁻¹ and a kon of 219000 M⁻¹ s⁻¹.
